Laboratory results taken from the RNAGym collection of RNA variant scans (doi:10.7554/elife.90254).

B1: LINE1-full (parent)
chain: UACGUAGGUGGUUUUCCCCUGAUAGUGCUAAGGGGGCCUGGAAGUUUGGACUGGGCAGAGCUCAACACAGCGUGGCAAAGUGGCUGUGGCUAGACUGCCUCUCUGGAUUCCUCGUCACUCAGCAGGGCAUCUCUGAGAGAAAUGCC

Variants of: B1
Assay: self-cleavage, relative activity (ratio to wild type); higher = more cleavage; in vitro, sequencing; the parent is a self-cleaving ribozyme

Variant	self-cleavage
U5C A59G	0.32
U5A A142G	0.89
U5A G106A	1.14
U5A A6G	2.12
U5A A6U	1.23
G4U A78G	1.05
U5C A67U	0.47
G4C U96A	0.12
U5C G144A	1.39
G4C A77G	2.9
U5C A142C	0.98
G4A U108C	1.04
G4A U130C	1.38
U5C U23G	1.53
U5C C71U	0.68
U5A A77G	2.07
G4A G54A	0.6
U5A A94G	0.44
U5A A94U	0.32
U5C G53U	0.88
U5C A94G	0.46
U5C C146U	0.69
U5C C116A	1.29
U5C G33A	1.45

Variant	self-cleavage
U5C A42U	1.04
U5C A42G	0.75
U5C A57C	0.49
U5C A140G	1.12
G4C U112A	0.75
U5C G114A	0.96
U5A A138C	0.98
U5C G36A	0.4
U5C U14A	0.86
U5C A31C	0.75
U5C A31U	0.78
G4A U20G	0.62
U5A U9C	0.81
U5A U119C	0.9
U5A U119A	1.05
U5A U104C	1.1
G4C U115C	2.15
U5C C113A	0.36
U5A U81C	0.99
U5A C128U	1.06
U5C A138C	0
U5C U39A	0.91
U5C U39C	1.05
G4A U87C	0.1

Variant	self-cleavage
G4A U87G	0.07
U5C G82A	1.18
G4A U115C	0.9
G4A U115A	1.14
U5A G53A	0.79
G4U U39A	1.95
G4U A121U	1.23
U5A A69U	0.09
U5A A69G	0.45
U5C A129G	1.43
U5C G27A	0.17
G4A U47A	0.52
U5C A77G	1.49
U5C A77U	0.73
U5A A136G	1.14
U5A A136U	1.11
U5A U39G	0.22
G4A G40A	1.24
G4A G21A	0.76
U5C G97A	0
U5C C95G	0.17
G4A G139A	1.21
G4A U23C	1.11
U5A G36A	1.19

Variant	self-cleavage
U5C C123U	0.45
U5C A50G	1.01
U5A U12C	0.74
U5A U12G	0.6
G4U U52A	1.01
U5A U132A	1.38
U5C G10A	0.51
G4C A78G	0.81
G4A U14C	0.59
G4A U14A	0.75
U5A C38G	0.71
G4A U85C	0.13
U5C U13A	1.67
U5C A124C	0.8
U5C A124G	1.15
G4U A77G	2.68
U5A A67G	0.7
G4U A138U	1.19
G4U U109C	1.07
U5C C18G	0.99
G4A U81A	1.34
G4U U5C	0.79
G4A U104C	0.83
U5C U20A	0.84

Variant	self-cleavage
U5C U20C	1.09
U5C A69U	0.14
U5A U45C	1
U5A U45G	0.71
U5A U62A	0
G4C A124G	0.48
U5C U26G	0.47
G4A U62G	0
G4U A30G	1.11
U5A A65C	0.08
U5C A141U	0.73
G4C A79G	0.29
G4A U73A	0.97
G4A U73C	1.68
U5C A78U	1.9
G4U U81C	0.2
G4A U96C	0.15
U5C G80A	2.24
U5C G74U	0.38
U5A A129G	0.79
U5C G135A	0.96
U5C A24G	0.86
G4C A64G	1.25
U5C C90U	0.11

Variant	self-cleavage
U5C U9A	0.74
U5C U9C	1.28
U5A A43G	0.76
U5A A64C	0.19
U5C A30G	0.74
U5C A30C	0.28
G4A G11A	0.58
G4U U134A	1.07
U5C G89U	0.16
U5C U12C	0.86
U5C U12G	1.34
G4A U26A	0.82
U5A A140U	1.09
U5C G105A	1.16
U5C G105U	1.32
G4U U119C	1.31
U5C A121U	0.86
U5C A121G	1.28
U5C U15C	1
U5A C95U	0.14
U5A U29A	1.16
U5A A57U	0.34
U5A A57G	0.83
U5A U102C	0.95

Variant	self-cleavage
U5C A107G	1.13
U5C G55A	0.5
U5C U45A	0.74
G4A U52C	0.88
U5A U85A	0.14
U5C G25A	1.34
U5A U73G	0.48
U5A U73C	1.41
U5A U73A	2.19
G4C A141G	0.5
G4A C133A	0.79
G4U A136G	1.91
U5C A22G	0.57
U5C G126A	1.36
U5A G49A	0.5
U5C	1.06
U5A	0.95
G4C A107U	1.49
U5C A79G	1.15
U5C C19U	1
U5C C19A	0.8
G4A U12G	1.23
U5C G32A	1.06
